Patent US20240318218A1 (The Trustees of Columbia University in The City of New York, priority 2023, published 2024)
Values belong to the molecule of their own block, whether it stands above or below them.

How the values were obtained:
human NADK = biological target: T1, human NADK (Homo sapiens, UniProt O95544); details: cited from earlier work
T1 sequence (O95544 1-446): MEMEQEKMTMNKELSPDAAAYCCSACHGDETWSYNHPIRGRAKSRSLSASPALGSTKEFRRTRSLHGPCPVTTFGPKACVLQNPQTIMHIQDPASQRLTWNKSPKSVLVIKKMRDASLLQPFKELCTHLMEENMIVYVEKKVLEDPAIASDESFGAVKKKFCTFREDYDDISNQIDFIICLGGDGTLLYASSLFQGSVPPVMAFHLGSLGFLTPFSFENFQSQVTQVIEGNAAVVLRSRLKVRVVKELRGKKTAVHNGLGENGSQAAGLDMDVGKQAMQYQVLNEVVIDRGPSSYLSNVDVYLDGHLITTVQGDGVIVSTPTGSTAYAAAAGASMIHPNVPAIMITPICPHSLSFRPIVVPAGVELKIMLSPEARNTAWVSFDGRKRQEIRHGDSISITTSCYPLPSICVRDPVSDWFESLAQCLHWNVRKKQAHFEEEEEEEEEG

[1] = biological target: T2, B. subtilis polyphosphate NAD+ kinase (PPNK), recombinant, 6x-histidine tag (Bacillus subtilis, UniProt O31612); assay: Kinetics of polyphosphate NAD+ kinase (PPNK), coupled to TPNOX, absorbance at 340 nm; details: 26° C., pH 7.8, 10 mM MgCl2, random bi-bi sequential
T2 sequence (O31612 1-266): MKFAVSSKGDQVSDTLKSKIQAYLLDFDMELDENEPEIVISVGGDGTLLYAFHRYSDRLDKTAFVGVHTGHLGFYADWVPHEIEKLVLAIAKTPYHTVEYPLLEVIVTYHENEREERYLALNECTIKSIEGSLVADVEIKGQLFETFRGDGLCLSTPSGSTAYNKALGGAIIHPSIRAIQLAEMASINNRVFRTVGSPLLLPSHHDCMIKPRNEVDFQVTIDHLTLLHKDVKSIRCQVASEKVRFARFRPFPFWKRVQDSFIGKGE
Protocol: (§4) For overexpression, the enzymes were transformed into BL21(DE3) E. coli cells (New England Biolabs). […] Overexpression of the enzymes was induced by adding isopropyl-β-thiogalactopyranoside (IPTG) to a final concentration of 1 mM at an optical density (OD) of 0.6 at 600 nm. After 3 h of induction, the cells were harvested and sonicated in wash buffer A for TPNOX (10 mM imidazole, 300 mM NaCl, and 20 mM Tris-HCl pH 7.4) and wash buffer B for all other enzymes (40 mM imidazole, 300 mM NaCl, and 20 mM Tris-HCl pH 7.4). The cells were centrifuged at 7000 rpm for 1 h and 4° C. The protein was purified using a nickel-nitrilotriacetic acid (Ni-NTA) column with continuous elution up to 500 mM imidazole.
(§5) The reaction was carried out at 26° C. in a solution containing 10 mM Tris-HCl, pH 7.8, 10 mM MgCl2, and 0.02 μg/μL TPNOX. […] A molar absorption coefficient of 6.22×10^4 mol^−1 cm^−1 was used to convert absorption to molar concentration of NADPH.

ATP production = details: 1 mM fuel; cascade with ADH, formDH and FDH; polyphosphate; 200 μL
Protocol: Exemplary cascades were tested with ADH and formDH. […] The cascade was tested in 200 μL reaction volumes.

[2] = substrate: NC(=O)C1=CN([C@@H]2O[C@H](COP(=O)(O)OP(=O)(O)OC[C@H]3O[C@@H](n4cnc5c(N)ncnc54)[C@H](O)[C@@H]3O)[C@@H](O)[C@H]2O)C=CC1; assay: purified protein, by the assay type; details: 26° C., pH 7.8, 10 mM MgCl2, random bi-bi sequential, pH 7.8, 26.0 °C
[3] = substrate: Nc1ncnc2c1ncn2[C@@H]1O[C@H](COP(=O)(O)OP(=O)(O)OP(=O)(O)O)[C@@H](O)[C@H]1O; assay: purified protein, by the assay type; details: other: cosubstrate NADH, 26° C., pH 7.8, 10 mM MgCl2, random bi-bi sequential
Protocol: as §4, §5

[4] = substrate: NC(=O)c1ccc[n+]([C@@H]2O[C@H](COP(=O)([O-])OP(=O)(O)OC[C@H]3O[C@@H](n4cnc5c(N)ncnc54)[C@H](OP(=O)(O)O)[C@@H]3O)[C@@H](O)[C@H]2O)c1; assay: purified protein, by the assay type; details: other: reverse direction; random bi-bi sequential mechanism
[5] = substrate: Nc1ncnc2c1ncn2[C@@H]1O[C@H](COP(=O)(O)OP(=O)(O)O)[C@@H](O)[C@H]1O; assay: purified protein, by the assay type; format: biochemical, pigeon; details: other: reverse direction; random bi-bi sequential mechanism
Description: The ATP-producing NADK has been predominantly studied in the forward direction (consuming ATP) since the observed isoforms, such as the human NADK, are irreversible. Without wishing to be bound by theory, one form, pigeon NADK, follows a random bi-bi sequential mechanism and the kinetic parameters for the reverse direction are found in Table I.
Synthetic pigeon, duck, and cat NADK genes and a cloned human NADK gene all with C-terminal 6×-histidine tags were expressed E. coli and purified to apparent homogencity. The pigeon enzyme shares 85% sequence homology with the human enzyme, while the duck and pigeon enzymes are 96% sequence homology. The cat enzyme shares a 91% sequence homology to the human enzyme.
Referring now to FIGS. 3A-3B, initial rate kinetic experiments were performed with pigeon, duck, cat, and human NADK enzymes in both the forward and reverse directions. […] In FIG. 3B, the production of ATP was detected in a coupled reaction with firefly luciferase where ATP was converted to light, the relative luminescence (RLU) was monitored, and a standard curve was used to calculate the ATP concentration. […]
ATP production was measured using firefly luciferase. […] The luminescence was measured in a plate reader in 26° C. in a solution containing 10 mM Tris-HCl, pH 7.8, and 10 mM MgCl2. The ATP produced was calculated from luminescence using a calibration plot. […]

[6] = substrate: NC(=O)c1ccc[n+]([C@@H]2O[C@H](COP(=O)([O-])OP(=O)(O)OC[C@H]3O[C@@H](n4cnc5c(N)ncnc54)[C@H](O)[C@@H]3O)[C@@H](O)[C@H]2O)c1; assay: Kinetics of formate dehydrogenase (FDH); format: biochemical, C. boidinii; details: other: abbreviated sequential mechanism; pH 7.4; 37.0 °C
Description: (§1) The enzymes involved in the cascade were characterized. Kinetic parameters for the NADH-dependent dehydrogenases, PPNKs, NADPH oxidases, and NADKs included in the exemplary embodiments of the present disclosure are shown in Table I below.
(§2) The FDH from C. boidinii was expressed recombinantly in a pEt28a plasmid and purified according to the materials and methods.
(§3) For overexpression, the enzymes were transformed into BL21(DE3) E. coli cells (New England Biolabs). Overnight cultures of BL21(DE3) E. coli cells harboring the DNA in pET20b plasmids and pET28a plasmid for FDH and sfGFP, respectively, were transferred into 50 mL of LB medium with 100 μg/mL ampicillin at 37° C. Overexpression of the enzymes was induced by adding isopropyl-β-thiogalactopyranoside (IPTG) to a final concentration of 1 mM at an optical density (OD) of 0.6 at 600 nm. After 3 h of induction, the cells were harvested and sonicated in wash buffer A for TPNOX (10 mM imidazole, 300 mM NaCl, and 20 mM Tris-HCl pH 7.4) and wash buffer B for all other enzymes (40 mM imidazole, 300 mM NaCl, and 20 mM Tris-HCl pH 7.4). The cells were centrifuged at 7000 rpm for 1 h and 4° C. The protein was purified using a nickel-nitrilotriacetic acid (Ni-NTA) column with continuous elution up to 500 mM imidazole.

[7] = substrate: O=CO; assay: Kinetics of formate dehydrogenase (FDH); format: biochemical, C. boidinii; details: other: abbreviated sequential mechanism; pH 7.4; 37.0 °C
Description: as §1, §2, §3

NADK = assay: Initial rate kinetic experiments with pigeon, duck, cat and human NADK enzymes, forward and reverse directions; format: biochemical; details: reverse direction (NADP^+ + ADP to NAD^+ + ATP); recombinant enzyme
Protocol: Recombinantly-expressed NADKs were explored for their reversible activities. It was hypothesized that the reversibility of the pigeon enzyme would enable compensation for the high picolinic acid […] (PC) activity present in pigeon livers, which inhibits NAD^+ biosynthesis from dietary tryptophan. […] It was determined that human NADK has an affinity for NAD^+ that is about 600 times higher than the pigeon, duck and cat isoforms. Without wishing to be bound by theory, NAD^+ serves as a product inhibitor for the reverse human NADK activity, which accounts for the observed irreversible behavior. While each of the NADKs explored were “reversible,” the reverse activity of the human enzyme is impeded via product inhibition. […]
Referring now to FIGS. 3A-3B, initial rate kinetic experiments were performed with pigeon, duck, cat, and human NADK enzymes in both the forward and reverse directions. […] In FIG. 3B, the production of ATP was detected in a coupled reaction with firefly luciferase where ATP was converted to light, the relative luminescence (RLU) was monitored, and a standard curve was used to calculate the ATP concentration.

Molecule: NC(=O)c1ccc[n+]([C@@H]2O[C@H](COP(=O)([O-])OP(=O)(O)OC[C@H]3O[C@@H](n4cnc5c(N)ncnc54)[C@H](OP(=O)(O)O)[C@@H]3O)[C@@H](O)[C@H]2O)c1 [NADP^+]
- inhibition of human NADK (human NADK): not

- kcat ([1]; substrates NADH and ATP): (2.6 ± 1.9) × 10^2 min^−1
- kcat ([1]; substrates NADH and poly(P) (sodium metaphosphate)): (5.6 ± 2.6) × 10^2 min^−1
Molecule: NC(=O)C1=CN([C@@H]2O[C@H](COP(=O)(O)OP(=O)(O)OC[C@H]3O[C@@H](n4cnc5c(N)ncnc54)[C@H](O)[C@@H]3O)[C@@H](O)[C@H]2O)C=CC1 [NADH]
- inhibition of human NADK (human NADK): inhibited

Molecule: NC(=O)C1=CN([C@@H]2O[C@H](COP(=O)(O)OP(=O)(O)OC[C@H]3O[C@@H](n4cnc5c(N)ncnc54)[C@H](OP(=O)(O)O)[C@@H]3O)[C@@H](O)[C@H]2O)C=CC1 [NADPH]
- inhibition of human NADK (human NADK): inhibited

Molecule: O=CO [formate]
- ATP production rate (ATP production): 1.3×10^7 total RLU/h

Molecule: CO [methanol]
- ATP production rate (ATP production): 7.2×10^7 total RLU/h

B1: B. subtilis polyphosphate NAD+ kinase (PPNK), recombinant, 6x-histidine tag (Bacillus subtilis subsp. subtilis str. 168) (protein)
chain: T2 sequence (O31612 1-266)
- Km ([2]; other: cosubstrate ATP): 1700 ± 1400 µM
- Km ([2]; other: cosubstrate poly(P) (sodium metaphosphate)): 1200 ± 600 µM
- Km [3]: 1400 ± 1110 µM

B2: pigeon NADK (ATP-NAD+ kinase), recombinant, C-terminal 6x-histidine tag (Columba livia) (protein)
chain: MEMNRDKLCPGKADVSSDSAYHCSTCHDDEEWSNTSRGRAKSRSLSASPALGSTKEFRRTRSLHGPCPVTTFGPKACMLQNPKTIMHIQDPASQRLTWNKPPKSVLVIKKIRDASLLQPFKELCVYLTEENNMIVYVEKKVLEDPAIANDDNFGPVKKKFCTFREDYDDISNQIDFIICLGGDGTLLYASSLFQGSVPPVMAFHLGSLGFLTPFNFENFQSQVTQVIEGNAALVLRSRLKVKVVKEHREKTTVQNGIEENGVVSANIEKEVGKQIMQYQVLNEVVVDRGPSSYLSNVDVFLNGHLITTVQGDGVIVSTPTGSTAYAAAAGASMIHPNVPAIMITPICPHSLSFRPIVVPAGVELKIMLSPDARNTAWVSFDGRKRQEICHGDSISITTSCYPLPSICFRDPVSDWFESLAECLHWNVRKKQNNFAVEEEEF
- Km [4]: 730 ± 160 µM
- kcat [4]: 0.145 ± 0.06 s⁻¹
- Km [5]: 27000 ± 10000 µM

B3: C. boidinii formate dehydrogenase (FDH), recombinant ([Candida] boidinii) (protein)
chain: MKIVLVLYDAGKHAADEEKLYGCTENKLGIANWLKDQGHELITTSDKEGETSELDKHIPDADIIITTPFHPAYITKERLDKAKNLKLVVVAGVGSDHIDLDYINQTGKKISVLEVTGSNVVSVAEHVVMTMLVLVRNFVPAHEQIINHDWEVAAIAKDAYDIEGKTIATIGAGRIGYRVLERLLPFNPKELLYYDYQALPKEAEEKVGARRVENIEELVAQADIVTVNAPLHAGTKGLINKELLSKFKKGAWLVNTARGAICVAEDVAAALESGQLRGYGGDVWFPQPAPKDHPWRDMRNKYGAGNAMTPHYSGTTLDAQTRYAEGTKNILESFFTGKFDYRPQDIILLNGEYVTKAYGKHDKK
notes: made in house; host or cells: E. coli BL21(DE3)
- Km [6]: 30 ± 2 µM
- kcat [6]: (3.4 ± 0.1) × 10^2 min^−1
- Km [7]: 4000 ± 60 µM

B4: human NADK: cloned human ATP-NAD^+ kinase with C-terminal 6×-histidine tag (protein, UniProt O95544 1-446, looked up)
NAD kinase: T1 sequence (O95544 1-446)
- reverse NADK activity (NADK): no measurable activity in the reverse direction
